Laboratory results taken from the supplement of paper PMC10567573.

B1: GNB5 (parent)
chain: YYPSGDAFASGSDDATCRLYDLRA

Variants of: B1
Experiment: protein stability index of a GFP-peptide fusion (GPS, HEK-293T) (PSI 1-6); higher = more stable
Conditions: c terminus: a fixed tail appended
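Note: lentivirally expressed fusions sorted by FACS into six bins by GFP to DsRed ratio, PSI derived from sequencing read proportions per bin multiplied by bin number.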

Variant	protein stability index
YYPSYDAFASGSDDATCRLYDLRA [G5Y]	2.4
YYPSGAAFASGSDDATCRLYDLRA [D6A]	2.31
YYPSGCAFASGSDDATCRLYDLRA [D6C]	2.03
YYPSGEAFASGSDDATCRLYDLRA [D6E]	2.43
YYPSGFAFASGSDDATCRLYDLRA [D6F]	2.14
YYPSGGAFASGSDDATCRLYDLRA [D6G]	2.72
YYPSGHAFASGSDDATCRLYDLRA [D6H]	2.26
YYPSGIAFASGSDDATCRLYDLRA [D6I]	1.89
YYPSGKAFASGSDDATCRLYDLRA [D6K]	1.64
YYPSGLAFASGSDDATCRLYDLRA [D6L]	2.06
YYPSGMAFASGSDDATCRLYDLRA [D6M]	1.92
YYPSGNAFASGSDDATCRLYDLRA [D6N]	2.11
YYPSGPAFASGSDDATCRLYDLRA [D6P]	2.81
YYPSGQAFASGSDDATCRLYDLRA [D6Q]	1.83
YYPSGRAFASGSDDATCRLYDLRA [D6R]	1.91
YYPSGSAFASGSDDATCRLYDLRA [D6S]	2.52
YYPSGTAFASGSDDATCRLYDLRA [D6T]	2.13
YYPSGVAFASGSDDATCRLYDLRA [D6V]	2.35
YYPSGWAFASGSDDATCRLYDLRA [D6W]	1.52
YYPSGYAFASGSDDATCRLYDLRA [D6Y]	1.97
YYPSGDCFASGSDDATCRLYDLRA [A7C]	2.31
YYPSGDDFASGSDDATCRLYDLRA [A7D]	3.83
YYPSGDEFASGSDDATCRLYDLRA [A7E]	3.1
YYPSGDFFASGSDDATCRLYDLRA [A7F]	1.77

Variant	protein stability index
YYPSGDGFASGSDDATCRLYDLRA [A7G]	3.47
YYPSGDHFASGSDDATCRLYDLRA [A7H]	2.58
YYPSGDIFASGSDDATCRLYDLRA [A7I]	2.31
YYPSGDKFASGSDDATCRLYDLRA [A7K]	2.52
YYPSGDLFASGSDDATCRLYDLRA [A7L]	2.2
YYPSGDMFASGSDDATCRLYDLRA [A7M]	2.47
YYPSGDNFASGSDDATCRLYDLRA [A7N]	2.73
YYPSGDPFASGSDDATCRLYDLRA [A7P]	2.5
YYPSGDQFASGSDDATCRLYDLRA [A7Q]	2.65
YYPSGDRFASGSDDATCRLYDLRA [A7R]	3.1
YYPSGDSFASGSDDATCRLYDLRA [A7S]	2.39
YYPSGDTFASGSDDATCRLYDLRA [A7T]	2.71
YYPSGDVFASGSDDATCRLYDLRA [A7V]	2.23
YYPSGDWFASGSDDATCRLYDLRA [A7W]	1.66
YYPSGDYFASGSDDATCRLYDLRA [A7Y]	2.06
YYPSGDAAASGSDDATCRLYDLRA [F8A]	4.18
YYPSGDACASGSDDATCRLYDLRA [F8C]	3.87
YYPSGDADASGSDDATCRLYDLRA [F8D]	4.4
YYPSGDAEASGSDDATCRLYDLRA [F8E]	4.5
YYPSGDAGASGSDDATCRLYDLRA [F8G]	4.09
YYPSGDAHASGSDDATCRLYDLRA [F8H]	4.09
YYPSGDAIASGSDDATCRLYDLRA [F8I]	3.42
YYPSGDAKASGSDDATCRLYDLRA [F8K]	4.19
YYPSGDALASGSDDATCRLYDLRA [F8L]	3.6

Variant	protein stability index
YYPSGDAMASGSDDATCRLYDLRA [F8M]	3.53
YYPSGDANASGSDDATCRLYDLRA [F8N]	4.23
YYPSGDAPASGSDDATCRLYDLRA [F8P]	4.12
YYPSGDAQASGSDDATCRLYDLRA [F8Q]	3.71
YYPSGDARASGSDDATCRLYDLRA [F8R]	3.76
YYPSGDASASGSDDATCRLYDLRA [F8S]	4.11
YYPSGDATASGSDDATCRLYDLRA [F8T]	4.02
YYPSGDAVASGSDDATCRLYDLRA [F8V]	4.07
YYPSGDAWASGSDDATCRLYDLRA [F8W]	2.62
YYPSGDAYASGSDDATCRLYDLRA [F8Y]	2.61
YYPSGDAFCSGSDDATCRLYDLRA [A9C]	2.36
YYPSGDAFDSGSDDATCRLYDLRA [A9D]	3.6
YYPSGDAFESGSDDATCRLYDLRA [A9E]	3.17
YYPSGDAFFSGSDDATCRLYDLRA [A9F]	1.9
YYPSGDAFGSGSDDATCRLYDLRA [A9G]	2.41
YYPSGDAFHSGSDDATCRLYDLRA [A9H]	2.15
YYPSGDAFISGSDDATCRLYDLRA [A9I]	2.12
YYPSGDAFKSGSDDATCRLYDLRA [A9K]	2.22
YYPSGDAFLSGSDDATCRLYDLRA [A9L]	1.99
YYPSGDAFMSGSDDATCRLYDLRA [A9M]	2.45
YYPSGDAFNSGSDDATCRLYDLRA [A9N]	2.65
YYPSGDAFPSGSDDATCRLYDLRA [A9P]	3.06
YYPSGDAFQSGSDDATCRLYDLRA [A9Q]	2.36
YYPSGDAFRSGSDDATCRLYDLRA [A9R]	2.17

Variant	protein stability index
YYPSGDAFSSGSDDATCRLYDLRA [A9S]	2.56
YYPSGDAFTSGSDDATCRLYDLRA [A9T]	2.36
YYPSGDAFVSGSDDATCRLYDLRA [A9V]	2.32
YYPSGDAFWSGSDDATCRLYDLRA [A9W]	1.72
YYPSGDAFYSGSDDATCRLYDLRA [A9Y]	2.04
YYPSGDAFAAGSDDATCRLYDLRA [S10A]	2.25
YYPSGDAFACGSDDATCRLYDLRA [S10C]	2.01
YYPSGDAFADGSDDATCRLYDLRA [S10D]	3.28
YYPSGDAFAEGSDDATCRLYDLRA [S10E]	3
YYPSGDAFAFGSDDATCRLYDLRA [S10F]	2.03
YYPSGDAFAGGSDDATCRLYDLRA [S10G]	2.36
YYPSGDAFAHGSDDATCRLYDLRA [S10H]	2.56
YYPSGDAFAIGSDDATCRLYDLRA [S10I]	1.79
YYPSGDAFAKGSDDATCRLYDLRA [S10K]	2.25
YYPSGDAFALGSDDATCRLYDLRA [S10L]	2.05
YYPSGDAFAMGSDDATCRLYDLRA [S10M]	2.16
YYPSGDAFANGSDDATCRLYDLRA [S10N]	2.64
YYPSGDAFAPGSDDATCRLYDLRA [S10P]	2.46
YYPSGDAFAQGSDDATCRLYDLRA [S10Q]	2.54
YYPSGDAFARGSDDATCRLYDLRA [S10R]	2.1
YYPSGDAFATGSDDATCRLYDLRA [S10T]	2.68
YYPSGDAFAVGSDDATCRLYDLRA [S10V]	2.18
